US11325966

How the values were obtained:
Assay in all cases: cell-based or functional assay
[1] = target: HIV-1 Env of pseudovirus 6244_13_B5_4576 (HIV-1)
[2] = target: HIV-1 Env of pseudovirus T250-4 (HIV-1)
[3] = target: HIV-1 Env of pseudovirus PVO.4 (HIV-1)
[4] = target: HIV-1 Env of pseudovirus CAAN5342.A2 (HIV-1)
[5] = target: HIV-1 Env of pseudovirus 3415.v1.c1 (HIV-1)
[6] = target: HIV-1 Env of pseudovirus Ce0393_C3 (HIV-1)
[7] = target: HIV-1 Env of pseudovirus RHPA4259.7 (HIV-1)
[8] = target: HIV-1 Env of pseudovirus THRO4156.18 (HIV-1)
[9] = target: HIV-1 Env of pseudovirus Q23.17 (HIV-1)
[10] = target: HIV-1 Env of pseudovirus P0402_c2_11 (HIV-1)
[11] = target: HIV-1 Env of pseudovirus BJOX009000.02.4 (HIV-1)
[12] = target: HIV-1 Env of pseudovirus 1006_11_C3_1601 (HIV-1)
[13] = target: HIV-1 Env of pseudovirus CNE53 (HIV-1)
[14] = target: HIV-1 Env of pseudovirus Du172.17 (HIV-1)
[15] = target: HIV-1 Env of pseudovirus ZM233M.PB6 (HIV-1)
[16] = target: HIV-1 Env of pseudovirus 263-8 (HIV-1)
[17] = target: HIV-1 Env of pseudovirus X1193_c1 (HIV-1)
[18] = target: HIV-1 Env of pseudovirus 6545.v4.c1 (HIV-1)
[19] = target: HIV-1 Env of pseudovirus 6240_08_TA5_4622 (HIV-1)
[20] = target: HIV-1 Env of pseudovirus CNE20 (HIV-1)
[21] = target: HIV-1 Env of pseudovirus 246F C1G (HIV-1)
[22] = target: HIV-1 Env of pseudovirus 249M B10 (HIV-1)
[23] = target: HIV-1 Env of pseudovirus QH0692.42 (HIV-1)
[24] = target: HIV-1 Env of pseudovirus Q769.d22 (HIV-1)
[25] = target: HIV-1 Env of pseudovirus REJO4541.67 (HIV-1)
[26] = target: HIV-1 Env of pseudovirus P1981_C5_3 (HIV-1)
[27] = target: HIV-1 Env of pseudovirus Q259.d2.17 (HIV-1)
[28] = target: HIV-1 Env of pseudovirus ZM214M.PL15 (HIV-1)
[29] = target: HIV-1 Env of pseudovirus Q461.e2 (HIV-1)
[30] = target: HIV-1 Env of pseudovirus 235-47 (HIV-1)
[31] = target: HIV-1 Env of pseudovirus 6540.v4.c1 (HIV-1)
[32] = target: HIV-1 Env of pseudovirus X2131_C1_B5 (HIV-1)
[33] = target: HIV-1 Env of pseudovirus 191955_A11 (HIV-1)
[34] = target: HIV-1 Env of pseudovirus AC10.0.29 (HIV-1)
[35] = target: HIV-1 Env of pseudovirus CNE58 (HIV-1)
[36] = target: HIV-1 Env of pseudovirus Ce703010054_2A2 (HIV-1)
[37] = target: HIV-1 Env of pseudovirus Ce704809221_1B3 (HIV-1)
[38] = target: HIV-1 Env of pseudovirus Ce2010_F5 (HIV-1)
[39] = target: HIV-1 Env of pseudovirus 3103.v3.c10 (HIV-1)
[40] = target: HIV-1 Env of pseudovirus R3265.c06 (HIV-1)

B1: 10-1074 (antibody, V domains shown)
VH: QVQLQESGPGLVKPSETLSVTCSVSGDSMNNYYWTWIRQSPGKGLEWIGYISDRESATYNPSLNSRVVISRDTSKNQLSLKLNSVTPADTAVYYCATARRGQRIYGVVSFGEFFYYYSMDVWGKGTTVTVSS
VL: SYVRPLSVALGETARISCGRQALGSRAVQWYQHRPGQAPILLIYNNQDRPSGIPERFSGTPDINFGTRATLTISGVEAGDEADYYCHMWDSRSGFSWSFGGATRLTVL
IC50 in TZM-bl assay [1]: 0.091 µg/mL | IC80 in TZM-bl assay [1]: 0.38 µg/mL | IC50 in TZM-bl assay [2]: 0.002 µg/mL | IC80 in TZM-bl assay [2]: 0.005 µg/mL | IC50 in TZM-bl assay [3]: 0.072 µg/mL | IC80 in TZM-bl assay [3]: 0.252 µg/mL | IC50 in TZM-bl assay [4]: 0.005 µg/mL | IC80 in TZM-bl assay [4]: 0.019 µg/mL | IC50 in TZM-bl assay [5]: > 10 µg/mL | IC80 in TZM-bl assay [5]: > 10 µg/mL | IC50 in TZM-bl assay [6]: > 10 µg/mL | IC80 in TZM-bl assay [6]: > 10 µg/mL | IC50 in TZM-bl assay [7]: 0.023 µg/mL | IC80 in TZM-bl assay [7]: 0.083 µg/mL | IC50 in TZM-bl assay [8]: > 10 µg/mL | IC80 in TZM-bl assay [8]: > 10 µg/mL | IC50 in TZM-bl assay [9]: 0.005 µg/mL | IC80 in TZM-bl assay [9]: 0.015 µg/mL | IC50 in TZM-bl assay [10]: 0.008 µg/mL | IC80 in TZM-bl assay [10]: 0.024 µg/mL | IC50 in TZM-bl assay [11]: > 10 µg/mL | IC80 in TZM-bl assay [11]: > 10 µg/mL | IC50 in TZM-bl assay [12]: 0.002 µg/mL | IC80 in TZM-bl assay [12]: 0.006 µg/mL | IC50 in TZM-bl assay [13]: 0.013 µg/mL | IC80 in TZM-bl assay [13]: 0.058 µg/mL | IC50 in TZM-bl assay [14]: 0.049 µg/mL | IC80 in TZM-bl assay [14]: 0.194 µg/mL | IC50 in TZM-bl assay [15]: 0.058 µg/mL | IC80 in TZM-bl assay [15]: 0.371 µg/mL | IC50 in TZM-bl assay [16]: 0.416 µg/mL | IC80 in TZM-bl assay [16]: 5.71 µg/mL | IC50 in TZM-bl assay [17]: 0.07 µg/mL | IC80 in TZM-bl assay [17]: 0.207 µg/mL | IC50 in TZM-bl assay [18]: > 10 µg/mL | IC80 in TZM-bl assay [18]: > 10 µg/mL | IC50 in TZM-bl assay [19]: 0.038 µg/mL | IC80 in TZM-bl assay [19]: 0.131 µg/mL | IC50 in TZM-bl assay [20]: 0.002 µg/mL | IC80 in TZM-bl assay [20]: 0.005 µg/mL | IC50 in TZM-bl assay [21]: 0.035 µg/mL | IC80 in TZM-bl assay [21]: 0.119 µg/mL | IC50 in TZM-bl assay [22]: > 10 µg/mL | IC80 in TZM-bl assay [22]: > 10 µg/mL | IC50 in TZM-bl assay [23]: 0.106 µg/mL | IC80 in TZM-bl assay [23]: 0.383 µg/mL | IC50 in TZM-bl assay [24]: > 10 µg/mL | IC80 in TZM-bl assay [24]: > 10 µg/mL | IC50 in TZM-bl assay [25]: > 10 µg/mL | IC80 in TZM-bl assay [25]: > 10 µg/mL | IC50 in TZM-bl assay [26]: 0.004 µg/mL | IC80 in TZM-bl assay [26]: 0.013 µg/mL | IC50 in TZM-bl assay [27]: > 10 µg/mL | IC80 in TZM-bl assay [27]: > 10 µg/mL | IC50 in TZM-bl assay [28]: 0.415 µg/mL | IC80 in TZM-bl assay [28]: 2.97 µg/mL | IC50 in TZM-bl assay [29]: > 10 µg/mL | IC80 in TZM-bl assay [29]: > 10 µg/mL | IC50 in TZM-bl assay [30]: 0.058 µg/mL | IC80 in TZM-bl assay [30]: 0.224 µg/mL | IC50 in TZM-bl assay [31]: > 10 µg/mL | IC80 in TZM-bl assay [31]: > 10 µg/mL | IC50 in TZM-bl assay [32]: 0.014 µg/mL | IC80 in TZM-bl assay [32]: 0.056 µg/mL | IC50 in TZM-bl assay [33]: > 10 µg/mL | IC80 in TZM-bl assay [33]: > 10 µg/mL | IC50 in TZM-bl assay [34]: 0.015 µg/mL | IC80 in TZM-bl assay [34]: 0.043 µg/mL | IC50 in TZM-bl assay [35]: 0.165 µg/mL | IC80 in TZM-bl assay [35]: 0.476 µg/mL | IC50 in TZM-bl assay [36]: > 10 µg/mL | IC80 in TZM-bl assay [36]: > 10 µg/mL | IC50 in TZM-bl assay [37]: 0.084 µg/mL | IC80 in TZM-bl assay [37]: 0.395 µg/mL | IC50 in TZM-bl assay [38]: > 10 µg/mL | IC80 in TZM-bl assay [38]: > 10 µg/mL | IC50 in TZM-bl assay [39]: 0.024 µg/mL | IC80 in TZM-bl assay [39]: 0.061 µg/mL | IC50 in TZM-bl assay [40]: > 10 µg/mL | IC80 in TZM-bl assay [40]: > 10 µg/mL
